Experimental data published in patent publication US20140287471A1, “VARIANT CBH I POLYPEPTIDES WITH REDUCED PRODUCT INHIBITION” (BP CORPORATION NORTN AMERICA INC., priority 2011, published 2014).
Read-outs that look alike come from different tables or passages of the source.

B1: 268Leu (protein, UniProt P62694 18-513, looked up, variant R268L)
Exoglucanase 1: QSACTLQSETHPPLTWQKCSSGGTCTQQTGSVVIDANWRWTHATNSSTNCYDGNTWSSTLCPDNETCAKNCCLDGAAYASTYGVTTSGNSLSIGFVTQSAQKNVGARLYLMASDTTYQEFTLLGNEFSFDVDVSQLPCGLNGALYFVSMDADGGVSKYPTNTAGAKYGTGYCDSQCPRDLKFINGQANVEGWEPSSNNANTGIGGHGSCCSEMDIWEANSISEALTPHPCTTVGQEICEGDGCGGTYSDNLYGGTCDPDGCDWNPYRLGNTSFYGPGSSFTLDTTKKLTVVTQFETSGAINRYYVQNGVTFQQPNAELGSYSGNELNDDYCTAEEAEFGGSSFSDKGGLTQFKKATSGGMVLVMSLWDDYYANMLWLDSTYPTNETSSTPGAVRGSCSTSSGVPAQVESQSPNAKVTFSNIKFGPIGSTGNPSGGNPPGGNRGTTTTRRPATTTGSSPGPTQSHYGQCGGIGYSGPTVCASGTTCQVLNPYYSQCL
B2: 411Val (protein, UniProt P62694 18-513, looked up, variant R411V)
Exoglucanase 1: QSACTLQSETHPPLTWQKCSSGGTCTQQTGSVVIDANWRWTHATNSSTNCYDGNTWSSTLCPDNETCAKNCCLDGAAYASTYGVTTSGNSLSIGFVTQSAQKNVGARLYLMASDTTYQEFTLLGNEFSFDVDVSQLPCGLNGALYFVSMDADGGVSKYPTNTAGAKYGTGYCDSQCPRDLKFINGQANVEGWEPSSNNANTGIGGHGSCCSEMDIWEANSISEALTPHPCTTVGQEICEGDGCGGTYSDNRYGGTCDPDGCDWNPYRLGNTSFYGPGSSFTLDTTKKLTVVTQFETSGAINRYYVQNGVTFQQPNAELGSYSGNELNDDYCTAEEAEFGGSSFSDKGGLTQFKKATSGGMVLVMSLWDDYYANMLWLDSTYPTNETSSTPGAVVGSCSTSSGVPAQVESQSPNAKVTFSNIKFGPIGSTGNPSGGNPPGGNRGTTTTRRPATTTGSSPGPTQSHYGQCGGIGYSGPTVCASGTTCQVLNPYYSQCL
B3: 268Phe (protein, UniProt P62694 18-513, looked up, variant R268F)
Exoglucanase 1: QSACTLQSETHPPLTWQKCSSGGTCTQQTGSVVIDANWRWTHATNSSTNCYDGNTWSSTLCPDNETCAKNCCLDGAAYASTYGVTTSGNSLSIGFVTQSAQKNVGARLYLMASDTTYQEFTLLGNEFSFDVDVSQLPCGLNGALYFVSMDADGGVSKYPTNTAGAKYGTGYCDSQCPRDLKFINGQANVEGWEPSSNNANTGIGGHGSCCSEMDIWEANSISEALTPHPCTTVGQEICEGDGCGGTYSDNFYGGTCDPDGCDWNPYRLGNTSFYGPGSSFTLDTTKKLTVVTQFETSGAINRYYVQNGVTFQQPNAELGSYSGNELNDDYCTAEEAEFGGSSFSDKGGLTQFKKATSGGMVLVMSLWDDYYANMLWLDSTYPTNETSSTPGAVRGSCSTSSGVPAQVESQSPNAKVTFSNIKFGPIGSTGNPSGGNPPGGNRGTTTTRRPATTTGSSPGPTQSHYGQCGGIGYSGPTVCASGTTCQVLNPYYSQCL
B4: 411Leu (protein, UniProt P62694 18-513, looked up, variant R411L)
Exoglucanase 1: QSACTLQSETHPPLTWQKCSSGGTCTQQTGSVVIDANWRWTHATNSSTNCYDGNTWSSTLCPDNETCAKNCCLDGAAYASTYGVTTSGNSLSIGFVTQSAQKNVGARLYLMASDTTYQEFTLLGNEFSFDVDVSQLPCGLNGALYFVSMDADGGVSKYPTNTAGAKYGTGYCDSQCPRDLKFINGQANVEGWEPSSNNANTGIGGHGSCCSEMDIWEANSISEALTPHPCTTVGQEICEGDGCGGTYSDNRYGGTCDPDGCDWNPYRLGNTSFYGPGSSFTLDTTKKLTVVTQFETSGAINRYYVQNGVTFQQPNAELGSYSGNELNDDYCTAEEAEFGGSSFSDKGGLTQFKKATSGGMVLVMSLWDDYYANMLWLDSTYPTNETSSTPGAVLGSCSTSSGVPAQVESQSPNAKVTFSNIKFGPIGSTGNPSGGNPPGGNRGTTTTRRPATTTGSSPGPTQSHYGQCGGIGYSGPTVCASGTTCQVLNPYYSQCL

How the values were obtained:
[1] = 4-MUL cellobiose tolerance/inhibition assay, dose-response IC50 (Example 2); type: biochemical; settings: averaged IC50 from Tables 8-11
Summary of the method: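 CBH I variant supernatants (5 μg/mL final, or undiluted if lower) on 0.5 mM 4-MUL in 100 mM MES pH 6 with 25 mM gluconolactone, fluorescence ex/em 365/450 nm. Activity measured at 6–8 cellobiose levels up to 100 mM; IC50 from four-parameter fit, bottom constrained to knockout background.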

[2] = 4-MUL assay, specific activity (Example 2); type: biochemical
Summary of the method: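 CBH I variant supernatants (5 μg/mL final) hydrolysed 0.5 mM 4-MUL in 100 mM MES pH 6 with 25 mM gluconolactone to block BG, with or without cellobiose. Fluorescence (ex/em 365/450 nm) followed over the first 15 min for initial rates, plus a 1 h endpoint before and after carbonate quench. Specific activity from 4-MU standards and HPLC protein quantification.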

[3] = 268 single substitution, read-out: 268— Measured (merged IC50)
[4] = 411 single substitution, read-out: 411— Measured (merged IC50)

Molecule | IC50 [1, 3] [µM] | 268— Measured Specific Activity (SA) ([2]; 268 single substitution) [μmol 4 MU/min/mg CBH I] | 268— Δ SA* (change in specific activity; ratio of variant: WT) ([2]; 268 single substitution) | IC50 [1, 4] [µM] | 411— Measured Specific Activity (SA) ([2]; 411 single substitution) [μmol 4 MU/min/mg CBH I] | 411— Δ SA* (change in specific activity; ratio of variant: WT) ([2]; 411 single substitution)
B1 | 450 | 1.83 | 2.4 |  |  | 
B2 |  |  |  | 3160 | 0.65 | 0.9
B3 | 480 |  | 0.5 |  |  | 
B4 |  |  |  | 6540 |  | 0.2
